Laboratory results reported in patent publication US20220332827A1 (WUXI BIOLOGICS IRELAND, published 2022).

T1: human PD-L2 on the cell surface (human, UniProt Q9BQ51 20-273)
T1 construct: whole, on cells; also called cell surface human PD-L2
T1 sequence (looked up): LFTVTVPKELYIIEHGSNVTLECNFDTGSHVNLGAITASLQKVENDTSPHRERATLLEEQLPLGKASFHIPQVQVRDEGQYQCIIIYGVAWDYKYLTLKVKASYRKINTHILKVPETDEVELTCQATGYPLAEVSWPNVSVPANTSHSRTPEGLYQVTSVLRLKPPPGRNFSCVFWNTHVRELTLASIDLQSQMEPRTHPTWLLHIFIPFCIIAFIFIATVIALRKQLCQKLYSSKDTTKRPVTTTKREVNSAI


Columns and labels:
[1] = molecular target: mouse PD-L1 protein (soluble) (mouse) (UniProt Q9EP73); test: ELISA, scFv; set-up: unit not given here
mouse PD-L1 protein (soluble) (mouse), sequence (Q9EP73 19-238 limits assumed): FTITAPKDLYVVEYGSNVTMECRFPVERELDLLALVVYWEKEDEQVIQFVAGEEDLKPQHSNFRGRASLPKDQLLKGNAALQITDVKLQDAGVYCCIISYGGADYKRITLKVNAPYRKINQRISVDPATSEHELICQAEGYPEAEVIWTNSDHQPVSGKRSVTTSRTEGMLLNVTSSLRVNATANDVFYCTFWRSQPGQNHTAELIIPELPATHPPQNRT

[2] = molecular target: human PD-L1 protein (soluble, ELISA antigen and SPR analyte) (human) (UniProt Q9NZQ7); test: ELISA, scFv; set-up: unit not given here
human PD-L1 protein (soluble, ELISA antigen and SPR analyte) (human), sequence (Q9NZQ7 19-238 limits assumed): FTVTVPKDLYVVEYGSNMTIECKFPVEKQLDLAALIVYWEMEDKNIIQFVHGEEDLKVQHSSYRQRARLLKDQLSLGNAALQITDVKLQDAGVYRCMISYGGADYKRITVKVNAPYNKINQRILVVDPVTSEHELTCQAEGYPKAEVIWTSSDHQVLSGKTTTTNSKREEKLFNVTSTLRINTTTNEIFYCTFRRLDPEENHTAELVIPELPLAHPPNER

[3] = molecular target: cynomolgus monkey PD-L1 protein (soluble) (cynomolgus monkey) (UniProt G7PSE7); test: ELISA, scFv; set-up: unit not given here
cynomolgus monkey PD-L1 protein (soluble) (cynomolgus monkey), sequence (G7PSE7 entry or part of it limits assumed): as the sequence (Q9NZQ7 19-238 limits assumed) above, with A33T, A34S, S62N, R68Q, Q82R, F173L, T185A, T192I, H215L counted along it

[4] = molecular target: T2, mouse PD-L1 on the cell surface (mouse, UniProt Q9EP73 19-290); test: FACS on cells expressing mouse PD-L1, goat anti-human IgG Fc FITC
T2 construct: whole, on cells; also called cell surface mouse PD-L1
T2 sequence (Q9EP73 19-290): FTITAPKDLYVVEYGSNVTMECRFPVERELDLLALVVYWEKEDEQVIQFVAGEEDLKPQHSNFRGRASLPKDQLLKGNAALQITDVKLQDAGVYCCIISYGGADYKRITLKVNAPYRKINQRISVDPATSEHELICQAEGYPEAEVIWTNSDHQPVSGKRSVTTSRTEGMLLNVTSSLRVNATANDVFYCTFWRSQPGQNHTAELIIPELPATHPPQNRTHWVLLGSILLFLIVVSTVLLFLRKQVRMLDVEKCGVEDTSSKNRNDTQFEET
Procedure: (§1) Cross-reactivity was measured by FACS. […] Testing antibodies were diluted in wash buffer (1><PBS/1% BSA) and incubated with cells at 4° C. for 1 hour. After washing, the secondary antibody goat anti-human IgG Fc FITC (Jackson ImmunoResearch Lab) was added and incubated at 4° C. in the dark for 1 hour. The cells were then washed once and resuspended in 1><PBS/1% BSA, and analyzed by flow cytometry (BD).

[5] = molecular target: T3, cynomolgus PD-L1 on the cell surface (cynomolgus, UniProt G7PSE7 19-290); test: FACS on cells expressing cynomolgus PD-L1, goat anti-human IgG Fc FITC
T3 construct: also called cell surface cynomolgus PD-L1
T3 sequence (G7PSE7 entry or part of it limits assumed): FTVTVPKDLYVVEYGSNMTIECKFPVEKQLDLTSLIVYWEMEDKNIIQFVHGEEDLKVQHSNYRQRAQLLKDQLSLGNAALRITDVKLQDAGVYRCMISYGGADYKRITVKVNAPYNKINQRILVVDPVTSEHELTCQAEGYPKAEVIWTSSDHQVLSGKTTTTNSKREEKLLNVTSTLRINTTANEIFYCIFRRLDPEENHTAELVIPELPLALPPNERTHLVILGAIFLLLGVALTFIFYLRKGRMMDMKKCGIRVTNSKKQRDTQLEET
Procedure: as §1

[6] = molecular target: T4, human PD-L1 protein (soluble, ELISA antigen and SPR analyte) (human, UniProt Q9NZQ7 19-238); test: SPR, antibody captured on Protein A, PD-L1 as analyte
T4 construct: biotinylated in the capture ELISA; also called PD-L1 (human)
T4 sequence (Q9NZQ7 19-238 limits assumed): as the sequence (Q9NZQ7 19-238 limits assumed) above
Procedure: (§2) Antibodies were characterized for affinity and binding kinetics to PD-L1by SPR assay using ProteOn XPR36 (Bio-Rad). Protein A protein (Sigma) was immobilized to a GLM sensor chip (Bio-Rad) through amine coupling. Purified antibodies were flowed over the sensor chip and captured by the Protein A. The chip was rotated 90° and washed with running buffer (1 ><PBS/0.05% Tween20, Bio-Rad) until the baseline was stable. Five concentrations of human or cynomolgus monkey PD-L1and running buffer were flowed through the sensor chip at a flow rate of 100 μL/min for an association phase of 240s, followed by 600s dissociation. […] The chip was regenerated with pH 1.5 H₃PO₄ after each run. The association and dissociation curve was fit by 1:1 Langmuir binding model using ProteOn software.

[7] = molecular target: T5, cynomolgus monkey PD-L1 protein (soluble) (cynomolgus monkey, UniProt G7PSE7 19-238); test: as above
T5 construct: also called cyno PD-L1
T5 sequence (G7PSE7 entry or part of it limits assumed): as the sequence (Q9NZQ7 19-238 limits assumed) above, with A33T, A34S, S62N, R68Q, Q82R, F173L, T185A, T192I, H215L counted along it
Procedure: as §2

[8] = molecular target: T2, mouse PD-L1 on the cell surface; test: FACS competition: antibody against mouse Fc fusion-mouse PD-1 binding to cells expressing mouse PD-L1
[9] = molecular target: T6, human PD-L1 on the cell surface (CHO-K1 cells expressing human PD-L1) (human, UniProt Q9NZQ7 19-290); test: FACS competition: antibody against mouse Fc fusion-human PD-1 binding to cells expressing human PD-L1
T6 construct: the positions are those of the human PD-L1 alanine scan; also called cell surface human PD-L1; B7-H1
T6 sequence (Q9NZQ7 19-290 limits assumed): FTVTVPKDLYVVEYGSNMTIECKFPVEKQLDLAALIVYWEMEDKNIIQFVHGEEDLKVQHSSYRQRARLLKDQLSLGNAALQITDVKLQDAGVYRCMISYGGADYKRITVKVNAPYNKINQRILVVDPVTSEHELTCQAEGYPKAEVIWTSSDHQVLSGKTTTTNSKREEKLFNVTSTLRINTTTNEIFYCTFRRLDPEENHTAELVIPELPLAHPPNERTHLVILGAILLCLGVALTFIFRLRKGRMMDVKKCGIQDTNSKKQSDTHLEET

[10] = molecular target: T6, human PD-L1 on the cell surface (CHO-K1 …); test: FACS epitope binning: antibody mixed with biotinylated WBP315BMK6 on CHO-K1 cells expressing human PD-L1, Streptavidin-PE
Procedure: (§3) CHO-K 1 cells expressing human PD-L1on the cell surface were incubated with the mixture of biotinylated benchmark antibodies and testing antibodies (serially diluted in wash buffer) at 4° C. for 1 hour. The cells were washed and the second antibody Streptavidin-PE were added and incubated for 30 min at 4° C. The cells were then washed once and resuspended in 1><PBS/1% BSA, and analyzed by flow cytometery.

[11] = molecular target: T6, human PD-L1 on the cell surface (CHO-K1 …); test: FACS epitope binning: antibody mixed with biotinylated WBP315BMK1 on CHO-K1 cells expressing human PD-L1, Streptavidin-PE
Procedure: as §3

[12] = molecular target: T1, human PD-L2 on the cell surface; test: FACS on PD-L2+ CHO-K1 cells, goat anti-human IgG Fc FITC (cross-family test)
Procedure: Testing antibodies were diluted in wash buffer (1><PBS/1% BSA) and incubated with cells at 4° C. for 1 hour. After washing, the secondary antibody goat anti-human IgG Fc FITC (Jackson ImmunoResearch Lab) was added and incubated at 4° C. in the dark for 1 hour. The cells were then washed once and resuspended in 1><PBS/1% BSA, and analyzed by flow cytometry (BD).

[13] = molecular target: T4, human PD-L1 protein (soluble, ELISA …); test: SPR
[14] = molecular target: T6, human PD-L1 on the cell surface (CHO-K1 …); test: FACS on cells expressing human PD-L1, goat anti-human IgG Fc FITC
Procedure: as §1

Row | Binder | Bmax [1] | Bmax [2] | Bmax [3] | EC50 (read off the curve) [4] | EC50 (read off the curve) [5] | Kd [6] | koff [6] | kon [6] | Kd [7] | koff [7] | kon [7] | IC50 (read off the curve) [8] | IC50 (read off the curve) [9] | IC50 (read off the curve) [10] | IC50 (read off the curve) [11] | binding result [12] | koff [13] | EC50 (read off the curve) [14]
1 | W3152-r11.135.5-zAb17-m6 (scFv) (scFv, part only; not given: linker, domain order, tag, V domains shown, not shown: another chain or arm of the molecule; small tags and cut ends) VH: QVQLQESGPGLVKPSETLSLTCTVSGFSLTENSVSWIRQPPGKGLEWIGAVWSSGSTDYNSALKSRVTISRDTSKNQFSLKLSSVTAADTAVYYCTRSTYSNDFYYYFDYWGQGTMVTVSS VL: SYELTQPPSVSVSPGQTASITCSGSELPKRYAYWYQQKPGQSIVRVIYKDSERPSGISERFSGSSSGNTATLTISGTQAMDEADYYCSSTYGDRKLPIFGGGTKLTVL | 3.46 | 3.22 | 2.4 |  |  |  |  |  |  |  |  |  |  |  |  |  |  | 
2 | W3152-r11.135.5-zAb17-m6-uIgG4L (antibody, V domains shown, also called W3152-r11.135.5-zAb17-m6-IgG4L) VH: QVQLQESGPGLVKPSETLSLTCTVSGFSLTENSVSWIRQPPGKGLEWIGAVWSSGSTDYNSALKSRVTISRDTSKNQFSLKLSSVTAADTAVYYCTRSTYSNDFYYYFDYWGQGTMVTVSS VL: SYELTQPPSVSVSPGQTASITCSGSELPKRYAYWYQQKPGQSIVRVIYKDSERPSGISERFSGSSSGNTATLTISGTQAMDEADYYCSSTYGDRKLPIFGGGTKLTVLG |  |  |  | ~2 nM | ~1 nM | 0.514 nM | 0.00145 s⁻¹ | 2.81e+06 M⁻¹ s⁻¹ | 0.403 nM | 0.00101 s⁻¹ | 2.52e+06 M⁻¹ s⁻¹ | ~2 nM | ~0.1 nM | ~2 nM | ~0.6 nM | no binding (tested: concentration not shown) | 0.00103 s⁻¹ | ~0.2 nM
